Test results: paper PMC7721705 (2020)

Experiments:
CXCL12 (SDF1α) [1] = target: T1, CXCL12 (SDF1α) (UniProt P48061-2 22-89); assay: SPR; low-activity fraction (kd1)
CXCL12 (SDF1α) [2] = target: T1, CXCL12 (SDF1α); assay: SPR; high-activity fraction (kd2)
CXCL12 (SDF1α) [3] = target: T1, CXCL12 (SDF1α); assay: SPR; low-activity fraction (KD1, heterogeneous ligand model)
CXCL12 (SDF1α) [4] = target: T1, CXCL12 (SDF1α); assay: SPR; high-activity fraction (KD2, heterogeneous ligand model)

T1 sequence (P48061 22-89): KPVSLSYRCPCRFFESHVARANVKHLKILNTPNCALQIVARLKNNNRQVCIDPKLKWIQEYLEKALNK

Row | koff (CXCL12 (SDF1α) [1]) | koff (CXCL12 (SDF1α) [2]) | Kd (CXCL12 (SDF1α) [3]) | Kd (CXCL12 (SDF1α) [4]) | Binder
1 | 0.0375 s⁻¹ | 0.00159 s⁻¹ | 437 nM | 56.3 nM | native CXCR4 with C-terminal GSSG linker and rho1D4 tag (receptor) MEGISIYTSDNYTEEMGSGDYDSMKEPCFREENANFNKIFLPTIYSIIFLTGIVGNGLVILVMGYQKKLRSMTDKYRLHLSVADLLFVITLPFWAVDAVANWYFGNFLCKAVHVIYTVNLYSSVLILAFISLDRYLAIVHATNSQRPRKLLAEKVVYVGVWIPALLLTIPDFIFANVSEADDRYICDRFYPNDLWVVVFQFQHIMVGLILPGIVILSCYCIIISKLSHSKGHQKRKALKTTVILILAFFACWLPYYIGISIDSFILLEIIKQGCEFENTVHKWISITEALAFFHCCLNPILYAFLGAKFKTSAQHALTSVSRGSSLKILSKGKRGGHSSVSTESESSSFHSS
2 | 0.0356 s⁻¹ | 0.00171 s⁻¹ | 1660 nM | 29 nM | CXCR4^QTY29 with C-terminal GSSG linker and rho1D4 tag (receptor) MEGISIYTSDNYTEEMGSGDYDSMKEPCFREENANYNKTFLPTIYSIIYQTGTVGNGLVILVMGYQKKLRSMTDKYRLHLSTADLQFVTTLPYWATDATANWYFGNFLCKAVHVIYTVNLYSSVLILAFISLDRYLAIVHATNSQRPRKLLAEKVVYVGVWTPAQLLTTPDYTFANVSEADDRYICDRFYPNDLWVVVFQFQHIMVGLILPGIVILSCYCIIISKLSHSKGHQKRKALKTTTTLIQAFFACWQPYYTGISIDSYILLEIIKQGCEFENTVHKWISTTEAQAFYHCCTNPTQYAYLGAKFKTSAQHALTSVSRGSSLKILSKGKRGGHSSVSTESESSSFHSS
